{"source": "paper PMC7612645", "key": {"[1]": {"molecular_target": "HBV core protein (Cp) dimer (Hepatitis B virus) (UniProt P03146)", "sequence (P03146 whole entry)": "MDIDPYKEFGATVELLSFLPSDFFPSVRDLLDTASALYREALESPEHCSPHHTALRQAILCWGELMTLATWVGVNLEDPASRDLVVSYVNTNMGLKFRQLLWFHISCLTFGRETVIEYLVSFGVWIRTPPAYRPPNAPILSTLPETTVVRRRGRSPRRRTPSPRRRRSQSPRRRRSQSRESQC", "assay": "NCP reassembly, SEC-MALLS with RNase A challenge", "settings": "20 mM HEPES pH 7.5, 250 mM NaCl, 5 mM DTT, DMSO +/- compound, <0.15 M GuHCl, room temperature; Cp titrated in 10 steps to 1.2 uM"}, "[2]": {"molecular_target": "HBV core protein (Cp) dimer (Hepatitis B virus) (UniProt P03146)", "assay": "fluorescence anisotropy", "settings": "20 mM HEPES pH 7.5, 250 mM NaCl, 5 mM DTT, DMSO +/- compound, <0.15 M GuHCl, room temperature; Cp titrated in 10 steps to 1.2 uM; scale: normalized anisotropy change vs no compound"}}, "data": [{"substance": "HBV gRNA transcript", "values": [{"measurement": "binding signal (% NCP yield vs control)", "setting": "[1]", "value": 90}]}, {"substance": "HBV gRNA transcript, dye-labelled", "values": [{"measurement": "binding signal", "setting": "[2]", "value": 0.477}]}]}
